Substrate: O=c1cc(-c2ccccc2)oc2cc(O)cc(O)c12
Assay: cells, lysate or membranes
Settings: 1 mM NADPH, 100 mM sodium phosphate pH 7.9, 0.5 mM reduced glutathione, 28°C, chrysin 0.1-5 μM

B1: SbCYP82D2 (Scutellaria baicalensis) (protein)
chain: MLYDNSQYLAMEFSSAIYGAIAFFLFLYYCLLYTTSSKPNTRAYKAPPEAGGARLFSGHLHLMAGGTTGELPHINLANLADKHGPVFTIRLGVKRALVVSSWESAKELFTTCDVAVSSRPRMKAAKLLGYDFAMFGFAPYGAYWRELRKLISVELLSTRRMELQKEVRDSETRESIKELYKLWEERSEGSDSVLVDMKQWFGDLNLNVVLRMVAGKRWIGPETGRWREVLRDFFYLAGMFVPADAFPFLGWLDLGGHEKRMRQTAKELDGIVGGWVAEHREKEYSGEDKPKDFVDVMLSVVQGSSLRADYDADTIIKATCEALIVGGSDTTTVMLIWTLSFLLNNRHVLRKAQEELDKHVGRERRVNQSDINNLVYLQAIVKETLRLYPAGPIGGIREFTQDCQVGGYHVPKGTWLIVNLWKLHRDPKVWSEDCLEFRPERFLNKNIDVRGQDFELIPFGGGRRICPGANFGLHMLHLVLANLLQAFELTTVSDQVIDMTESAGMTNMKATPLNVLVAPRLSPTLY
30 min
  Km: 1.051 µM

B2: SbCYP82D1.1 (Scutellaria baicalensis) (protein)
chain: MELSSVIYGAIALLSLFYCYLHFSKPKKSSLNAPPEAGGARFITGHLHLMDGRSASDKLPHINLGLLADQHGPIFTIRLGVHRAVVVSSWELAKEIFTTHDTAVMARPRLIADDYLSYDGASLGFSPYGPYWREIRKLVTTELLSARRIELQRATRVREITQFTGELYKLWEEKKDGSGRVLVDMKQWLGNLSLNLVSRMVVGKRFYGGDDSETTKRWRGVMREFFQLIGQFIPGDGLPFLRWLDLGGFEKRTRDTAYELDKIIAMWLAEYRKREYSGDDKEQCFMALMLSLVQANPTLQLHYDADTIIKATCQVLISAASDTTTVILIWVISLLLNNADVLKKVQEELDEQVGRERRVEESDISNLPYLQAVVKETMRLYPPAPFAGVRAFSEDCTVGGYHIQKGTFLIVNLWKLHRDPRVWSDDALEFKPQRFFDKKVEVKGQDFELMPFGGGRRMCPGSNLGMHMVHFVLANILQAFDITTGSTVDMTESVGLTNMKATPLDAILTPRLSPTLY
3 min
  Km: 0.121 µM

Source: paper PMC5770198
